Entries after “also recorded” stand apart in the source; their conditions may differ. Like-named read-outs stand apart in the source and are kept apart here.

For one data set, the system named is wildtype mouse hearts. Kind of data set: Ex vivo model, low-flow ischemia and reperfusion. The settings on record: 10 μg immediately at reperfusion; 60 minutes low-flow ischemia, 60 minutes reperfusion. An excerpt: FIGS. 12A-12B. […] Left bar is vehicle-treated and right bar is FGF2-treated wildtype mouse hearts.
In the next data set the test system is ERK1/2. Kind of data set: ERK1/2 activation (phosphorylation) in left ventricle, immunoblot. It counts as in vivo, rat. The settings on record: immediately post-treatment. The procedure:
Hearts from rats treated with saline, native FGF1 or FGF1^ΔHBS in the presence or absence of heparin were collected immediately after administration and at 120 minutes post-treatment for evaluation of downstream signaling. One-half of each snap-frozen heart was powdered and homogenized in protein extraction buffer as previously described by our laboratory. For FGFR1, 150 μg of total protein were loaded onto a 8% SDS-PAGE gel, for ERK1/2 activation, 20 μg of whole cell protein homogenate was loaded onto a 15% SDS-PAGE gel, and for PKCα and PKCδ, […] of whole cell protein homogenate was loaded onto a 10% SDS-PAGE gel and then transferred to nitrocellulose membrane. 0.1% Ponceau S in 5% acetic acid was used to examine the transfer efficiency and loading equality as described previously 43. Membranes were blocked with 5% dry milk and then incubated with primary antibody against phospho-FGFR1 (Y-654, 1:500, Cell Signaling), phospho-ERK1/2 (1:1000, Cell Signaling) or phospho-PKCα (1:500, Santa Cruz) or phospho-PKCδ (1:500, Santa Cruz) followed by incubation with HRP-conjugated secondary goat anti-rabbit antibody (1:3000, Santa Cruz Biotechnology). Membranes were stripped and reprobed with antibodies against total FGFR1 (1:500, Cell Signaling), total ERK (1:1000, BD Transduction Labs) or total PKCα (1:500, Santa Cruz) or PKCδ (1:500, Santa Cruz). Bound antibodies were visualized by ECL system. Activation is indicated as a ratio of phosphorylated protein/total protein. β-actin (1:1000, Cell Signaling) was also used as a loading control.
Construction of his-tagged native and heparin-binding modified rhFGFs as well as their expression and purification is performed as previously described using his-tagged expression vectors and nickel-nitrilotriacetic acid resin columns. […] His-tagged FGFs are detected in solid organs by ELISA (FIG. 14) both for FGF and histidine (data not shown), and immunoprecipitation (IP) followed by immunoblot and in plasma by ELISA as described previously. His-tags are widely used because they are small and rarely interfere with function, activity, or structure of target proteins. […] There is no observed difference in total ERK or FGFR1 expression between the treatment groups.
(A western blot detects proteins with antibodies after separation by electrophoresis.)

A short description of data set [1]: Blood clotting time (tail nick). In kind it is in vivo, rat. The settings on record: for Clotting time: 15 mins post treatment, single agent; for blood clotting time post-treatment (in words): baseline vs 15 minutes after drug treatment; for effect on anticoagulant activity of heparin (in words): co-administered with unfractionated heparin. The procedure:
In sets of experiments, blood clotting time was detected at baseline and 15 minutes after drug treatment. In brief, a nick 1-2 mm depth was made at 5 cm and 3 cm of the proximal tail for baseline and post-drug blood clotting time, respectively; the tail nick was blotted with 4×4 gauze every 15 seconds until bleeding totally stopped, and blood clotting time was recorded from the onset of bleeding until it stopped.
Heparan sulfate proteoglycans or heparin regulates the bioavailability of FGFs. In order to develop a “cardioprotective” FGF as a therapeutic against ischemic heart disease, it was necessary to elucidate the efficacy of these cardiac FGFs in the presence of heparin treatment. Therefore, native rhFGFs (FGF 1, 2, 4, or 5) or vehicle are infused intravenously (at dose indicated above) in conjunction with unfractionated (12 units/kg/hr, i.v.) or low molecular weight heparin (enoxaparin 1 mg·kg, s.c.) during the first 15 minutes of reperfusion (FIG. 12A), and post-ischemic recovery of cardiac function and the degree of myocardial infarction is assessed. […] Unfractionated or low molecular weight heparin is administered alone during early reperfusion to elucidate the cardioprotective effects of heparins against IR injury. Whether FGF administration alters heparin activity is evaluated. To assess this potential interaction, activated clotting time (ACT) is assessed in vehicle-treated or FGF-treated groups in the absence or presence of heparin co-administration. Baseline and 15 minute post-drug treatment ACT is determined. It has been established that a heparin response occurs within 1 minute after an intravenous dose in humans and that no more time is required to achieve a predicted ACT.

The test system of another data set is FGFR1. Kind of data set: FGFR1 activation (phosphorylation) in left ventricle, immunoblot. On the set-up: species or system rat. The note with it: in vivo, after 15 minutes of treatment. The procedure: One-half of each snap-frozen heart was powdered and homogenized in protein extraction buffer as previously described by our laboratory. For FGFR1, 150 μg of total protein were loaded onto a 8% SDS-PAGE gel, for ERK1/2 activation, 20 μg of whole cell protein homogenate was loaded onto a 15% SDS-PAGE gel, and for PKCα and PKCδ, […] of whole cell protein homogenate was loaded onto a 10% SDS-PAGE gel and then transferred to nitrocellulose membrane. 0.1% Ponceau S in 5% acetic acid was used to examine the transfer efficiency and loading equality as described previously 43. Membranes were blocked with 5% dry milk and then incubated with primary antibody against phospho-FGFR1 (Y-654, 1:500, Cell Signaling), phospho-ERK1/2 (1:1000, Cell Signaling) or phospho-PKCα (1:500, Santa Cruz) or phospho-PKCδ (1:500, Santa Cruz) followed by incubation with HRP-conjugated secondary goat anti-rabbit antibody (1:3000, Santa Cruz Biotechnology). […]
Construction of his-tagged native and heparin-binding modified rhFGFs as well as their expression and purification is performed as previously described using his-tagged expression vectors and nickel-nitrilotriacetic acid resin columns. […] His-tagged FGFs are detected in solid organs by ELISA (FIG. 14) both for FGF and histidine (data not shown), and immunoprecipitation (IP) followed by immunoblot and in plasma by ELISA as described previously. […]

For another data set, the target named is T1, FGFR3c ectodomain (Homo sapiens, UniProt P22607).
T1 sequence (P22607 23-375 limits assumed): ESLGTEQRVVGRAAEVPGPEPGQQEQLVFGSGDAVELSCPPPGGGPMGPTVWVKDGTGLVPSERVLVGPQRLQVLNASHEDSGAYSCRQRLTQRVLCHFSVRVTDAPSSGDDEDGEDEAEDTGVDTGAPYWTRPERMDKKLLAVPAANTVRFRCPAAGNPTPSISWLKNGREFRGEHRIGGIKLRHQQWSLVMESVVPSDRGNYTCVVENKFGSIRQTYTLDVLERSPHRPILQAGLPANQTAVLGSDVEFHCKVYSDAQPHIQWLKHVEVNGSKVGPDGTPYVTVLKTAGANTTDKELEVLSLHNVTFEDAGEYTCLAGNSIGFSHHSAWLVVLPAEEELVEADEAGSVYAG
Kind of data set: ITC of FGF binding to FGFR3c ectodomain. The settings on record: for Kd: read-out: affinity for FGFR3c ectodomain.

The conditions of data set [2]: rat; for exogenous FGF1 level targeted to the heart: 10 μg/kg i.v.; for tissue and plasma FGF distribution (in words): i.v.

As to “FGF1: native recombinant human fibroblast growth factor 1”, in the data set on wildtype mouse hearts, the “contractile function (+dP/dt) compared to vehicle (in words)” value is listed as “significant enhancement of contractile function” and the “infarct size compared to vehicle (in words)” value was “significant reduction in infarct size”. Further, the “ERK1/2 activation (phosphorylation) in left ventricle (in words)” value (“ERK1/2 activation (phosphorylation)” below) with ERK1/2 (FGF with heparin) is “markedly reduced ERK1/2 activation stimulated by FGF1”. For the same molecule, in the data set with ERK1/2 (no FGF+heparin co-treatment), the “ERK1/2 activation (phosphorylation)” value is listed as “significantly increased compared to saline or heparin only treatment”. For the same molecule, in data set [1], the Clotting time is on record as 15 mins post rhFGF1 treatment: 144 +/− 21 sec (n = 7), the “blood clotting time post-treatment (in words)” value is given as “no significant difference in blood clotting time” and the “effect on anticoagulant activity of heparin (in words)” value was “does not alter the desired anticoagulant activity of heparin; also recorded: did not alter heparin's anticoagulant properties”. Moreover, the “FGFR1 activation (phosphorylation, Y-654) in left ventricle (in words)” value in the data set on FGFR1 was “elevated”. For the same molecule, the Kd with FGFR3c ectodomain worked out at 0.704 µM. Further, the “exogenous FGF1 level targeted to the heart” value (“exogenous FGF1 level targeted” for short) in data set [2] (no heparin) came out at 2282 ± 97 µg/mL. In addition, in data set [2] (FGF with heparin co-administration), the “tissue and plasma FGF distribution (in words)” value is “significantly decreased in kidney, spleen, heart, liver and plasma”. Besides, the “tissue and plasma FGF distribution (in words)” value in data set [2] (no FGF+heparin co-treatment) was “distributed to kidney, spleen, heart, liver, and plasma, while less went to lung and skeletal muscle”.

B1: FGF1^ΔHBS: FGF1 mutant carrying the K127D/K128Q/K133V triple mutation in its HS-binding region; reduced heparin-binding affinity (protein)
chain: MAEGEITTFTALTEKFNLPPGNYKKPKLLYCSNGGHFLRILPDGTVDGTRDRSDQHIQLQLSAESVGEVYIKSTETGQYLAMDTDGLLYGSQTPNEECLFLERLEENHYNTYISKKHAEKNWFVGLDQNGSCVRGPRTHYGQKAILFLPLPVSSD
In the case of B1, the “ERK1/2 activation (phosphorylation)” value with ERK1/2 (no FGF+heparin co-treatment) is “significantly increased compared to saline or heparin only treatment; also recorded: significantly higher level of phosphorylated ERK1/2”. For the same molecule, in data set [1], the Clotting time is listed as 15 mins post rhFGF^ΔHBS treatment: 169 +/− 10 sec (n = 10), the “blood clotting time post-treatment (in words)” value was “no significant difference in blood clotting time” and the “effect on anticoagulant activity of heparin (in words)” value is on record as “did not alter heparin's anticoagulant properties”. The “FGFR1 activation (phosphorylation, Y-654) in left ventricle (in words)” value in the data set with FGFR1 is given as “elevated”. The “FGFR (receptor) binding affinity (in words)” value with FGFR3c ectodomain (FGFR3c ectodomain) is given as “retains normal receptor binding affinity”. In the data set with FGFR3c ectodomain, the Kd stood at 0.432 µM. Further, the “exogenous FGF1 level targeted” value in data set [2] (no heparin) was found to be 3073 ± 101 µg/mL. For the same molecule, in data set [2] (with heparin administration), the “exogenous FGF1 level targeted” value was determined as 4336 ± 775 µg/mL. Besides, the “tissue and plasma FGF distribution (in words)” value in data set [2] (no FGF+heparin co-treatment) was “mainly went to the heart including atria, left ventricle, and right ventricle; also recorded: greater biodistribution of FGF1^ΔHBS to the left ventricle compared to native FGF1”.

The values above are taken from patent US20200384079A1, “Compositions of Fibroblast Growth Factor LIgands and Methods of Treating Patients Undergoing Ischemia-Reperfusion Therapy” (University of Cincinnati, priority 2017, published 2020).
